For 7 substances, specific 51Cr release (CRT), E/T 60:1 and 20:1 (percent specific chromium release), specific 51Cr release (CRT), E/T 70:1 (% specific lysis) and specific 51Cr release (CRT) (percent specific chromium release) results are on record in patent US5993823.

For test [1], the target named is SIV GAG 165-195 peptide (LP6) on autologous macaque B-LCL (SIV; rhesus macaque (Macaca mulatta)).
The target of test [2] is SIV GAG 165-185 peptide on autologous macaque B-LCL (SIV; rhesus macaque (Macaca mulatta)).
The target in test [3] is SIV GAG 176-195 peptide on autologous macaque B-LCL (SIV; rhesus macaque (Macaca mulatta)).
Test [4] concerns the target SIV NEF 155-178 peptide (LP3) on autologous macaque B-LCL (SIV; rhesus macaque (Macaca mulatta)).
Test [5] deals with SIV GAG 246-282 peptide (LP7) on autologous macaque B-LCL (SIV; rhesus macaque (Macaca mulatta)).
For test [6], the target named is SIV NEF 155-169 peptide on autologous macaque B-LCL (SIV; rhesus macaque (Macaca mulatta)).
The target in test [7] is SIV NEF 160-176 peptide on autologous macaque B-LCL (SIV; rhesus macaque (Macaca mulatta)).
The target of test [8] is SIV NEF 164-178 peptide on autologous macaque B-LCL (SIV; rhesus macaque (Macaca mulatta)).
Test [9] deals with SIV NEF 125-138 peptide on autologous macaque B-LCL (SIV; rhesus macaque (Macaca mulatta)).
Test [10] deals with SIV NEF 125-147 peptide (LP2) on autologous macaque B-LCL (SIV; rhesus macaque (Macaca mulatta)).
The target in test [11] is SIV NEF 155-178 peptide (LP3) on autologous macaque B-LCL (SIV; rhesus macaque (Macaca mulatta)). This is another data set of the same source.
In test [12] the target is SIV NEF 133-147 peptide on autologous macaque B-LCL (SIV; rhesus macaque (Macaca mulatta)).
For test [13], the target named is SIV NEF 201-225 peptide (LP4) on autologous macaque B-LCL (SIV; rhesus macaque (Macaca mulatta)).
Test [14] concerns the target SIV NEF 211-225 peptide on autologous macaque B-LCL (SIV; rhesus macaque (Macaca mulatta)).
For test [15], the target named is SIV NEF 201-215 peptide on autologous macaque B-LCL (SIV; rhesus macaque (Macaca mulatta)).

For “CTL line from PBMC of immunized macaque RS4, restimulated with the mixture of the 7 peptides (cells without a defined receptor)”, the specific 51Cr release (CRT), E/T 60:1 and 20:1 (percent specific chromium release) in [1] came out at 57; in test [2] it was 8; in test [3], 35.
In [4], “CTL line from PBMC of immunized macaque RS6, restimulated with the mixture of the 7 peptides (cells without a defined receptor)” came in with a specific 51Cr release (CRT), E/T 70:1 (% specific lysis) of 40.
“CTL line from PBMC of immunized macaque RS7, restimulated with the mixture of the 7 peptides (cells without a defined receptor)”: in [5], the specific 51Cr release (CRT), E/T 70:1 (% specific lysis) was determined as 59.
Turning to “CTL line from PBMC of immunized macaque RS17, restimulated with the mixture of the 7 peptides (cells without a defined receptor)”, the specific 51Cr release (CRT), E/T 60:1 and 20:1 (percent specific chromium release) worked out at 0 in test [6], 0 in test [7] and 46 in test [8]. In addition, the specific 51Cr release (CRT), E/T 70:1 (% specific lysis) in test [4] was found to be 44.
As to “CTL line from PBMC of immunized macaque RS20, restimulated with the mixture of the 7 peptides (cells without a defined receptor)”, the specific 51Cr release (CRT), E/T 60:1 and 20:1 (percent specific chromium release) in test [9] was found to be 85; in [10] it was 72; in [12] it was 4. The specific 51Cr release (CRT) (percent specific chromium release) stood at 87 in [11], 14 in test [6], 6 in test [7] and 49 in [8].
Consider “CTL line from PBMC of immunized macaque RS21, restimulated with the mixture of the 7 peptides (cells without a defined receptor)”, for which the specific 51Cr release (CRT), E/T 70:1 (% specific lysis) in test [13] came to 35.
For “CTL line from PBMC of immunized macaque RS23, restimulated with the mixture of the 7 peptides (cells without a defined receptor)”, the specific 51Cr release (CRT), E/T 60:1 and 20:1 (percent specific chromium release) in test [14] was 0; in [15], 18. Moreover, in test [13], the specific 51Cr release (CRT), E/T 70:1 (% specific lysis) came out at 42.
